These results are taken from the supplement of paper PMC9112550, “Optimization of the antimicrobial peptide Bac7 by deep mutational scanning” (BMC Biology, 2022).
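Further: peptides expressed intracellularly from a pBAD plasmid library in pooled LB shake-flask culture, induced with 0.3% L-arabinose, DNA abundance read by NGS, three biological replicates, DESeq2 with apeglm shrinkage.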

In this series the test system is Escherichia coli TOP10. Kind of series: shrunken log2 fold change of peptide-encoding DNA abundance (4.5 h post-induction vs induction); higher = less antimicrobial activity (less host growth inhibition). As to conditions: time post-induction: 4.5 h; library: site-saturation at positions 5, 18, 19, 20.
Turning to RRIRTRPPRLPRPRPRPNWQPRP, the “shrunken log2 fold change” value worked out at 0.0832.
Consider RRIRQRPPRLPRPRPRPGYQPRP, for which the “shrunken log2 fold change” value is -0.164.
Then RRIRWRPPRLPRPRPRPPRKPRP, with 0.731; and RRIRCRPPRLPRPRPRPATVPRP, with 0.141.
In the case of RRIRIRPPRLPRPRPRPSEMPRP, the “shrunken log2 fold change” value is -0.553.
To RRIRKRPPRLPRPRPRPSHIPRP belongs 0.156.
As for RRIRERPPRLPRPRPRPGDMPRP, the “shrunken log2 fold change” value was -0.116.
Then RRIRMRPPRLPRPRPRPHTYPRP, with -0.209; and RRIRTRPPRLPRPRPRPPDLPRP, with 0.243; and RRIRGRPPRLPRPRPRPCEHPRP, with 0.149.
To RRIRLRPPRLPRPRPRPIDEPRP belongs -0.178; to RRIRARPPRLPRPRPRPWKAPRP, -0.0198.
Then RRIRGRPPRLPRPRPRPWSQPRP, with 0.142; and RRIRMRPPRLPRPRPRPQPTPRP, with 0.868; and RRIRTRPPRLPRPRPRPSWTPRP, with -0.468.
Consider RRIRMRPPRLPRPRPRPVWGPRP, for which the “shrunken log2 fold change” value amounted to 0.185.
To RRIRVRPPRLPRPRPRPVQEPRP belongs -0.0375.
Then RRIRCRPPRLPRPRPRPDHRPRP, with -0.106; and RRIRFRPPRLPRPRPRPIPPPRP, with 1.09.
To RRIRIRPPRLPRPRPRPHQIPRP belongs -0.423.
With RRIRNRPPRLPRPRPRPPMIPRP, the “shrunken log2 fold change” value turned out to be 0.102.
Take RRIRFRPPRLPRPRPRPWLPPRP: the “shrunken log2 fold change” value was -0.0149.
Then RRIRPRPPRLPRPRPRPHVFPRP, with -0.327; and RRIRRRPPRLPRPRPRPAAYPRP, with 0.585; and RRIRMRPPRLPRPRPRPMVRPRP, with 0.0591.
To RRIRCRPPRLPRPRPRPPMWPRP belongs 0.557; to RRIRVRPPRLPRPRPRPIILPRP, -0.483.
Then RRIRVRPPRLPRPRPRPGWFPRP, with 0.22.
RRIRCRPPRLPRPRPRPFNCPRP: the “shrunken log2 fold change” value is -1.32.
To RRIRIRPPRLPRPRPRPYESPRP belongs -0.0135; to RRIRVRPPRLPRPRPRPIDLPRP, -0.417.
To RRIRWRPPRLPRPRPRPKIGPRP belongs -0.0273; to RRIRDRPPRLPRPRPRPIYWPRP, 0.202; to RRIRVRPPRLPRPRPRPSVEPRP, -0.0446.
To RRIRKRPPRLPRPRPRPGGLPRP belongs 0.0184; to RRIRGRPPRLPRPRPRPGFGPRP, 0.649; to RRIRPRPPRLPRPRPRPWIAPRP, 0.0544.
With RRIRTRPPRLPRPRPRPLMAPRP, the “shrunken log2 fold change” value is -0.031.
With RRIRVRPPRLPRPRPRPGHVPRP, the “shrunken log2 fold change” value came to 0.0316.
To RRIRHRPPRLPRPRPRPSVKPRP belongs -0.364; to RRIRCRPPRLPRPRPRPSFSPRP, -0.571.
Regarding RRIRWRPPRLPRPRPRPISWPRP, the “shrunken log2 fold change” value turned out to be 0.0165.
Then RRIRCRPPRLPRPRPRPGKNPRP, with -0.133.
To RRIRWRPPRLPRPRPRPYLCPRP belongs -0.447; to RRIRDRPPRLPRPRPRPYFTPRP, -0.573; to RRIRNRPPRLPRPRPRPPICPRP, 0.0224.
To RRIRFRPPRLPRPRPRPDMQPRP belongs -0.313; to RRIRERPPRLPRPRPRPLQNPRP, -0.116; to RRIRGRPPRLPRPRPRPCDQPRP, -0.0239.
For the sequence RRIRTRPPRLPRPRPRPNNNPRP, the “shrunken log2 fold change” value is -0.451.
